Residue numbers refer to the chain shown, from its start.
T1: Nectin-like-4 (UniProt Q8NFZ8 21-324, limits assumed)
T1 construct: Bought recombinant protein; also called CADM4; IgSF4C
T1 sequence (looked up): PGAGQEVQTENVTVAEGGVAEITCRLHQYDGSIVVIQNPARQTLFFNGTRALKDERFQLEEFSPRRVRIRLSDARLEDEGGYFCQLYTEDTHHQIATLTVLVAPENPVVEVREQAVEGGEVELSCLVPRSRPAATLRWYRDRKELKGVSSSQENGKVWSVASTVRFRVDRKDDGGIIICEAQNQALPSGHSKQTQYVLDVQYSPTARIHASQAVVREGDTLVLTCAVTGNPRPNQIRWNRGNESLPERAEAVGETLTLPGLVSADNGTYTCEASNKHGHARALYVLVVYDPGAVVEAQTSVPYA

T2: Nectin-like-2 (UniProt Q9BY67 45-374, limits assumed)
T2 construct: Bought recombinant protein; also called CADM1; IgSF4
T2 sequence (looked up): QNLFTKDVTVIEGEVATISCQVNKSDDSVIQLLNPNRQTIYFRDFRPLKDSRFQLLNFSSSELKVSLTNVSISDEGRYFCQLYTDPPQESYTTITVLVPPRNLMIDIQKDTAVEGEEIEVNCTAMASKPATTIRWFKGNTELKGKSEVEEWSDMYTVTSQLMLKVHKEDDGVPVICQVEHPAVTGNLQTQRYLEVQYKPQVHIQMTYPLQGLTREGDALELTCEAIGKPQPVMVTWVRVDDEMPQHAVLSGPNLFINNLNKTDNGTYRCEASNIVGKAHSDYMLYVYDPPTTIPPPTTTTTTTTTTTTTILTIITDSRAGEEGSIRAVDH

T3: Nectin-like-5 (UniProt P15151 21-343)
T3 construct: Bought recombinant protein; also called CD155; PVR
T3 sequence (looked up): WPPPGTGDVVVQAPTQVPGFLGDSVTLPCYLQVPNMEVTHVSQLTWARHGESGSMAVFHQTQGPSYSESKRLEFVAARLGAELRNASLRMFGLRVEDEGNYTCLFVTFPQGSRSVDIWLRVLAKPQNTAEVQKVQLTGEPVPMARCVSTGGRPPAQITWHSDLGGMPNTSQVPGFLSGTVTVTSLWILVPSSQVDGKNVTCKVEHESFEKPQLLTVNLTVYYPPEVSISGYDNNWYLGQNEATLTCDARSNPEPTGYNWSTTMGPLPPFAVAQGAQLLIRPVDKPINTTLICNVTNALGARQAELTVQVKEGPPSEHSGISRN

T4: Nectin-like-3 (UniProt Q8N3J6 25-367, limits assumed)
T4 construct: Bought recombinant protein; also called CADM2; IgSF4D
T4 sequence (looked up): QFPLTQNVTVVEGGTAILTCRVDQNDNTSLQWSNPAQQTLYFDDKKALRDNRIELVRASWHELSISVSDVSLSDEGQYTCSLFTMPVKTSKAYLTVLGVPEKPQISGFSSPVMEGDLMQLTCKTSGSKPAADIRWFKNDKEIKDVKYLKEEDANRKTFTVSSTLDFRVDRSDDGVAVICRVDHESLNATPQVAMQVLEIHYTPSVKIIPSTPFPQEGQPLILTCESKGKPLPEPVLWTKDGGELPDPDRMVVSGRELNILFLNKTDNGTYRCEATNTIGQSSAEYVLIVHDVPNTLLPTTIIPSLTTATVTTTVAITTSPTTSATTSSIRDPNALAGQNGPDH

T5: Nectin-1 (UniProt Q15223 31-334, limits assumed)
T5 construct: Bought recombinant protein; also called CD111; PVRL-1
T5 sequence (looked up): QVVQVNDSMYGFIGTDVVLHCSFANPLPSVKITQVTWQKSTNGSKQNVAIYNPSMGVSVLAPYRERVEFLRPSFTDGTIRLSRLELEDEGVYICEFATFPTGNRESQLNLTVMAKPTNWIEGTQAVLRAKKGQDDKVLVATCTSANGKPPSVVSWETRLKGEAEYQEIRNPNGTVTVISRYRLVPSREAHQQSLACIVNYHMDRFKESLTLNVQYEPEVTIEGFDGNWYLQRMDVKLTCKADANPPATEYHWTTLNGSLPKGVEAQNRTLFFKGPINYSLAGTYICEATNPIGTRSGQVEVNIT

B1: Antibody MM11 (antibody, mouse IgG1, kappa, V domains shown)
VH: DVQLQESGPGLVKPSQSLSLTCSVTGYSITSNFYWNWIRQFPGNRLEWMGYISYDGSNNYNPSLKNRISISRDTSKNQFFLKLNSVTTEDTATYYCVRADYWGQGTLVTVSA
VL: DTVMTQTPLSLPVSLGDQASISCRSSQSLESSDGHAYLNWYLQKPGQSPQLLIYRVSNRFSGVLHRFSGSGSGTDFTLKISRVEAEDLGVYFCLQFTHVPFTFGSGTKLEIKR
notes: Mouse monoclonal antibody from hybridoma; also called Nectin-4 mouse monoclonal antibody MM11; mouse antibody MM11
B2: Antibody R012 (antibody, V domains shown)
VH: SKSVEESGGRLVTPGTPLTLTCTVSGFSLSTYAMSWVRQAPGKGLEYIGIISGRGTTYYASWLKGRFTISKTSTTVDLKITSPTTEDTATYFCARDAGISDVYTGYFNLWGQGTLVTVSS
VL: QPVLAQLPSASAALGASAKLTCTLSSAHRTYTIAWYQQQQGEAPRYLMMLKSDGSYTKGTGVPDRFSGSSSGADRYLIISSVQAADEADYYCGADDSGGYVFGGGTQLTVTG
notes: Rabbit monoclonal antibody from phage display; also called Nectin-4 rabbit monoclonal antibody R012; rabbit antibody R012
B3: Antibody R036 (antibody, V domains shown)
VH: SQSVEESGGRLVTPGTPLTLTCTVSGFSLSSYAMSWVRQAPGKGLEYIGIIGGRGTTYYAIWAKGRFTISKTSTTVDLKITSPTTEDTATYFCARDAGTTYVGTTYVATGYFNLWGQGTLVTVSS
VL: B2 VL with A5T, L7P, R29K, M49I, K58R, A85D
notes: Rabbit monoclonal antibody from phage display; also called Nectin-4 rabbit monoclonal antibody R036; rabbit antibody R036

Each binder was assayed against T1, Nectin-like-4 (assay: ELISA, coated antigen, 0 ng/ml antibody (blank control)).
Description: (§1) Coating: Nectin-1, Nectin-2, Nectin-3, Nectin-4, Nectin-like-1, Nectin-like-2, Nectin-like-3, Nectin-like-4, and Nectin-like-5 were diluted to 5 μg/ml in coating buffer (carbonate buffer, pH 9.6) respectively. A 96-well plate was coat with 100 μl per well and incubated overnight at 2-8° C.;
(§2) Sample loading: The plate was taken out, patted dry, and washed twice with 200 μl/well of PBST, then patted dry. The Nectin-4 antibodies prepared in Example 1 (antibody MM11, antibody R012, and antibody R036) were diluted with 1% BSA/PBST to concentrations of 10 μg/ml, 1 μg/ml, 100 ng/ml, and 10 ng/ml, respectively. 1% BSA/PBST solution for dilution was set as a blank control. 100 μl per well was added to the 96-well plate, and incubated at room temperature for 2 hours;
(§3) Reaction termination and plate reading: 100 μl/well of 1 mol/L H3PO4 was added to terminate the reaction and the plated was read. The absorbances of wells in the plate at 450 nm with 650 nm as reference wavelength were read and recorded as OD_{450 nm-650 nm}.

| Binder | OD detection value |
| --- | --- |
| B1 | 0.008 OD450 nm-650 nm |
| B2 | 0.008 OD450 nm-650 nm |
| B3 | 0.007 OD450 nm-650 nm |

Each binder was assayed against T2, Nectin-like-2 in the same assay as above.
Description: as §1, §2, §3

| Binder | OD detection value |
| --- | --- |
| B1 | 0.006 OD450 nm-650 nm |
| B2 | 0.008 OD450 nm-650 nm |
| B3 | 0.007 OD450 nm-650 nm |

These binders were tested against T3, Nectin-like-5 in the same assay as above.
Description: as §1, §2, §3

| Binder | OD detection value |
| --- | --- |
| B1 | 0.011 OD450 nm-650 nm |
| B2 | 0.008 OD450 nm-650 nm |
| B3 | 0.008 OD450 nm-650 nm |

Each binder was assayed against T6, Nectin-3 (UniProt Q9NQS3 58-404, limits assumed) in the same assay as above.
T6 construct: Bought recombinant protein; also called CD113; PVRL-3
Description: as §1, §2, §3

T6 sequence (Q9NQS3 58-404 limits assumed): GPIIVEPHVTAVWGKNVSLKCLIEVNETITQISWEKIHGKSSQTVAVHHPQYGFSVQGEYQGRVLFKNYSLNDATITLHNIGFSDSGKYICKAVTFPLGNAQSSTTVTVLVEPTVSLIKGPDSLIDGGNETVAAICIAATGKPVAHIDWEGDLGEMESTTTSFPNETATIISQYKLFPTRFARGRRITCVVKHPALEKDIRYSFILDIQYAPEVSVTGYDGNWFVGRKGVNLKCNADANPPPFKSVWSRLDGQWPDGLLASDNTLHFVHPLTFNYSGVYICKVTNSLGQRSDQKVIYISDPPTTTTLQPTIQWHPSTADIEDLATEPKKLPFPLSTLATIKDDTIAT

| Binder | OD detection value |
| --- | --- |
| B1 | 0.006 OD450 nm-650 nm |
| B2 | 0.008 OD450 nm-650 nm |
| B3 | 0.007 OD450 nm-650 nm |

These binders were tested against T4, Nectin-like-3 in the same assay as above.
Description: as §1, §2, §3

| Binder | OD detection value |
| --- | --- |
| B1 | 0.027 OD450 nm-650 nm |
| B2 | 0.008 OD450 nm-650 nm |
| B3 | 0.007 OD450 nm-650 nm |

Each binder was assayed against T5, Nectin-1 (assay: ELISA, coated antigen, antibody at 100 ng/ml).
Description: as §1, §2, §3

| Binder | OD detection value |
| --- | --- |
| B1 | 0.008 OD450 nm-650 nm |
| B2 | 0.007 OD450 nm-650 nm |
| B3 | 0.007 OD450 nm-650 nm |

These binders were tested against T2, Nectin-like-2 (assay: ELISA, coated antigen, antibody at 100 ng/ml).
Description: as §1, §2, §3

| Binder | OD detection value |
| --- | --- |
| B1 | 0.007 OD450 nm-650 nm |
| B2 | 0.008 OD450 nm-650 nm |
| B3 | 0.007 OD450 nm-650 nm |

What follows are binders tested against T3, Nectin-like-5 (assay: ELISA, coated antigen, antibody at 100 ng/ml).
Description: as §1, §2, §3

| Binder | OD detection value |
| --- | --- |
| B1 | 0.007 OD450 nm-650 nm |
| B2 | 0.008 OD450 nm-650 nm |
| B3 | 0.009 OD450 nm-650 nm |

What follows are binders tested against T6, Nectin-3 (assay: ELISA, coated antigen, antibody at 100 ng/ml).
Description: as §1, §2, §3

| Binder | OD detection value |
| --- | --- |
| B1 | 0.014 OD450 nm-650 nm |
| B2 | 0.007 OD450 nm-650 nm |
| B3 | 0.007 OD450 nm-650 nm |

From US20260265354A1 (JIANGSU MABWELL HEALTH PHARMACEUTICAL R AND D, published 2026)
